Earlier results on 1 molecule are cited in patent US20060222641A1, “Method and composition for preventing or reducing edema, deep vein thrombosis and/or pulmonary embolism” (priority 2003, published 2006).

The subject of this data set is fibrinolytic activity in the plasma. The settings on record: oral administration.

B1: nattokinase: serine proteinase of approximately 275 amino acids, approximately 27.7 kDa, fibrinolytic enzyme from natto (Bacillus subtilis) (protein)
chain: AQSVPYGISQIKAPALHSQGYTGSNVKVAVIDSGIDSSHPDLNVRGGASFVPSETNPYQDGSSHGTHVAGTIAALNNSIGVLGVAPSASYAVKVLDSTGSGQYSWIINGIEWAISNNMGVINMSLGGPSGSTALKTVVDKAVSSGIVVAAAAGNEGSSGSSSTVGYPAKYPSTIAVGAVNSSNQRASFSSAGSELDVMAPGVSIQSTLPGGTYGAYNGTSMATPHVAGAAALILSKHPTWTNAQVRDRLESTATYLGNSFYYGKGLINVQAAAQ
modifications: Bacillus Subtilis
Take B1: the “Fibrinolytic activity in the plasma” value was “significant enhancement”.
